Values joined by “and” are separate entries in the source; they are usually repeats but may differ in a detail not shown here. Equal entries are not always repeated.
T1: MtrA (Mycobacterium tuberculosis H37Rv) (UniProt P9WGM7)
T1 sequence: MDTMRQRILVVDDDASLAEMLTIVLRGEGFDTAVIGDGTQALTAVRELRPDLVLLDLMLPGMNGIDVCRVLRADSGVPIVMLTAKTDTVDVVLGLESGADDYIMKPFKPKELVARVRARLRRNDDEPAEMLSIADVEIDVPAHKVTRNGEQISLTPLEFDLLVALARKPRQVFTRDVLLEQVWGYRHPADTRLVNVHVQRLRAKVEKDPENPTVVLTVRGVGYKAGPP

T2: MtrA (Mycobacterium tuberculosis H37Rv, UniProt P9WGM7 1-228)
T2 sequence: T1 sequence

B1: Rv2524c fragment (dsDNA)
DNA 1: GTTTTGTTATCAAATCGTTATGCTGG
DNA 2: CCAGCATAACGATTTGATAACAAAAC
B2: artificial highest-contribution sequence (dsDNA)
DNA 1: GTTTTGTTATCGTTTTGTGATATGGA
DNA 2: TCCATATCACAAAACGATAACAAAAC
B3: Rv0309 fragment (dsDNA)
DNA 1: GCTTTGTCACCGCACAGTGACCCAGC
DNA 2: GCTGGGTCACTGTGCGGTGACAAAGC
B4: Rv3859c fragment (dsDNA)
DNA 1: GTTACGTGATCGAATTGTGGTCCAGG
DNA 2: CCTGGACCACAATTCGATCACGTAAC
B5: No-Binding fragment (dsDNA)
DNA 1: ACAGCGGGACGTTTTCGCGCTGCATC
DNA 2: GATGCAGCGCGAAAACGTCCCGCTGT

What follows are molecules tested against T1, MtrA (Mycobacterium tuberculosis H37Rv) (assay: BLI). Settings: not given.

| Molecule | Kd |
| --- | --- |
| Rv0469 fragment | 119 µM |
| Rv3246c fragment | 9880 µM |
| Rv0320 fragment | 0.142 µM |
| Rv1918c fragment | 0.079 µM |
| Rv3849 fragment | 9650 µM |

The molecules below were run against T2, MtrA (assay: BLI). Settings: protein: recombinant; tags: His6 (pET28a, BamHI/XhoI; N-terminal, inferred from stop codon in reverse primer); chain copies: 2; blunt.

| Molecule | Kd | binding result |
| --- | --- | --- |
| B1 | 0.0462 µM and 0.0625 µM | – |
| B2 | 0.248 µM | – |
| B3 | 178 µM | – |
| B4 | 13.3 µM and 11.1 µM | – |
| B5 | – | no binding |
